Reference: PMC2920595 (Science (New York, N.Y.), 2009)

Biological target: T1, Ssh1p (large subunit, as in the purified Ssh1 complex) (Saccharomyces cerevisiae, UniProt P38353 1-490)
T1 sequence (looked up): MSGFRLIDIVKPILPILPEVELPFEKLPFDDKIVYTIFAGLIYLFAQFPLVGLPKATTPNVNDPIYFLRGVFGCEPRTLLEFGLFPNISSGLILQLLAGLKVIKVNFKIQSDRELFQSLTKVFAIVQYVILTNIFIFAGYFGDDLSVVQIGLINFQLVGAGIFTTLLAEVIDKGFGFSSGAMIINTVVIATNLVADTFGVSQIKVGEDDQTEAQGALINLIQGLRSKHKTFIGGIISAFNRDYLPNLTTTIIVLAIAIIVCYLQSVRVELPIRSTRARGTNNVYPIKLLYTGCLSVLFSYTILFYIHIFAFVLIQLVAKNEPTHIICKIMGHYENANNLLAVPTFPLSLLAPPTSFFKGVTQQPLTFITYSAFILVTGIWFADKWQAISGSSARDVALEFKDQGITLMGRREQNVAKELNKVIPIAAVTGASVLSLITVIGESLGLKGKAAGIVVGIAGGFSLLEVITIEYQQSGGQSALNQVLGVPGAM
Experiment: cryo-EM structure

binding result: binds
B1: ribosomal protein rpL25 (yeast 60S subunit) (natural protein)
chain: not shown
